Patent US20050049201A1, “Detection and removal of lead using lead-binding proteins” (priority 2001, published 2005)

Key:
[1] = Solid phase assay for lead: protein on nitrocellulose with chromogenic dye; conditions: combined results, various buffers, pH, salts and dyes
Protocol: A solid phase assay for the detection of lead was also developed using one or more synthetically produced lead-binding proteins. Both TB4 and ACBP and the various mutants that have been generated from them can be used in this assay. The experiment is performed by binding the protein to a solid surface support, such as nitrocellulose paper, cotton, glass microfibers, or polystyrene beads using, for example, methods described herein. Then the sample to be tested, such as saliva or blood, is placed onto the surface and allowed to react with the protein. After washing with buffer, or example a neutral non-chelating buffer to remove any unreacted material, the sample is treated with a ligand that can detect a lead-leading binding protein complex, for example, a ligand that can cause a color chance upon detecting a lead-protein complex. Examples of such ligands include, sodium sulfide and sodium rhodizonic acid. Furthermore, the concentration of the lead in the sample being tested may be determined by the intensity of the spot produced upon binding of the dye. […]
As a control, the assay was tested using solutions containing several different buffers, pH conditions, and salts for reaction with the sodium sulfide and sodium rhodizonic acid dyes used. […] The pH was determined empirically for rhodizonic acid over a range of pH 4 to pH 8. […]

[2] = lead binding; Quintanilla-Vega 1995, Smith 1998; read-out: dissociation constant (Kd) of high affinity lead-binding region; cited from earlier work

B1: acyl-CoA binding protein (protein, listed as Homo sapiens)
chain: MSQAEFEKAAEEVRHLKTKPSDEEMLFIYGHYKQATVGDINTERPGMLDFTGKAKWDAWNELKGTSKEDAMKAYINKVEELKKKYGI
[1]
  performance of solid phase lead detection assay: works well under various conditions
[2]
  Kd: ~1 nM
